Common to all, as to assay: cell-based or functional assay
The target of assay [1] is T1, human GIP receptor (human) (UniProt P48546).
T1 sequence (looked up): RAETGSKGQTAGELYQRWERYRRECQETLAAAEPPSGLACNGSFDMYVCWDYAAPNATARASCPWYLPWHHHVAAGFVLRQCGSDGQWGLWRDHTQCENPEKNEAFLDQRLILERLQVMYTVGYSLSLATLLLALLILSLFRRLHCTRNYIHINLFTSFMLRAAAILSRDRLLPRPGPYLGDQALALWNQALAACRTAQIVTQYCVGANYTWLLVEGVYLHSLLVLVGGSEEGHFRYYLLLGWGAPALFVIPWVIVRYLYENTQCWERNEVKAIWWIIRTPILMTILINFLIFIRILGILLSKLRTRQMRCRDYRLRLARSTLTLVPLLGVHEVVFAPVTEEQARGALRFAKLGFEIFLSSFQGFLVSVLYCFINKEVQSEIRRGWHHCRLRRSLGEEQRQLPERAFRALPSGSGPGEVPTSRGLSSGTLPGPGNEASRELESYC

Assay [2] deals with human glucagon receptor (human) (UniProt P47871).
human glucagon receptor (human), sequence (P47871 26-477): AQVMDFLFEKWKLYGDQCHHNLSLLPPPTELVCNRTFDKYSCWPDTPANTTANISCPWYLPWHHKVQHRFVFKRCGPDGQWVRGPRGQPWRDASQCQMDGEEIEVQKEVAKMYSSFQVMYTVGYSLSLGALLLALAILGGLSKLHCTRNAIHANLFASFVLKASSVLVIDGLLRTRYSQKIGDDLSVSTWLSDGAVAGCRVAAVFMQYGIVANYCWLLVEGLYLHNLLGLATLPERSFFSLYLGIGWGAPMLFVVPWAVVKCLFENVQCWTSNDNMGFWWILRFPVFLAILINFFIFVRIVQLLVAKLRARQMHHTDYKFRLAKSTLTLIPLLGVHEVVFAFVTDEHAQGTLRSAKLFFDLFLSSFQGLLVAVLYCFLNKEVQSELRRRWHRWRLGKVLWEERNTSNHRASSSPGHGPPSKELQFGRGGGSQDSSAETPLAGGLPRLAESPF
In assay [3] the target is hGLP-1R (Homo sapiens, UniProt P43220).
hGLP-1R, sequence (P43220 24-463): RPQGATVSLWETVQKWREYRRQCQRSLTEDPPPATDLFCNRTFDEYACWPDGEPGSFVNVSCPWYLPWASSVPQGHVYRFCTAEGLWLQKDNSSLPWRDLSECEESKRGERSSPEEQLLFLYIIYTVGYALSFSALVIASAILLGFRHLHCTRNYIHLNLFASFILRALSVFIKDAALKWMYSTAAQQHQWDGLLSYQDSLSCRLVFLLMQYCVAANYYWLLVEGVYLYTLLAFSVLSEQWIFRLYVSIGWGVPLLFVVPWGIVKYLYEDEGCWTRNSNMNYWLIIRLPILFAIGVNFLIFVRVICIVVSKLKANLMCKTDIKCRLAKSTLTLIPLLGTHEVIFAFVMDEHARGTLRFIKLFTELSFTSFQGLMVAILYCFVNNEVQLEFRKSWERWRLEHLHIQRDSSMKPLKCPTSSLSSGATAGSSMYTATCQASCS
For assay [4], the target named is human GLP1-R (SNAP-GLP-1R expressed in HEK293 cells) (human) (UniProt P43220).
human GLP1-R (SNAP-GLP-1R expressed in HEK293 cells) (human), sequence (P43220 24-463): as above

Changes are numbered by the printed parent chain.

Results on seven molecules are retold here after patent US20240270821A1, “GIP/GLP1/GCG TRI-RECEPTOR AGONISTS AND USES THEREOF” (priority 2023, published 2024).

B1: Example 37 (peptide)
chain: YXQGTFTSDFSKXLDKKAQXAFIEWLLEGGPSSGAPPPSEG
modifications: Aib, αMeL; K acylated; C-terminal amide; synthetic construct; SITE 2: note = 2-Aminoisobutyric Acid; SITE 13: note = alpha-methyl-leucine; SITE 17: note = Lysine is chemically modified through conjugation of the epsilon-amino group of the Lysine side chain with (2-[2-(2-Amino-ethoxy)-ethoxy]-acetyl)-(gamma-Glu)-CO-(CH2) 18-CO2H; SITE 20: n
With B1, in assay [1], the Relative cAMP EC50 amounted to 0.207 nM and the cAMP Rel EC50 (in the presence of 1% HSA) was found to be 56.4 nM. For the same molecule, in assay [2], the Relative cAMP EC50 turned out to be 6.83 nM and the cAMP Rel EC50 (in the presence of 1% HSA) turned out to be 1870 nM. Moreover, in assay [3], the Relative cAMP EC50 was found to be 1.66 nM and the cAMP Rel EC50 (in the presence of 1% HSA) worked out at 514 nM. Further, in assay [4], the GLP1R Internalization EC50 was 51.6 nM and the Internalization % TOP was 68.3%.

B2: Example 43 (peptide)
chain: B1 chain with W25Y, G29X, S39G, E40G, G41S
modifications: acylated Lys; Aib, αMeL non-natural; C-terminal amide; synthetic construct; SITE 2: note = 2-Aminoisobutyric Acid; SITE 13: note = alpha-methyl-leucine; SITE 17: note = Lysine is chemically modified through conjugation of the epsilon-amino group of the Lysine side chain with (2-[2-(2-Amino-ethoxy)-ethoxy]-acetyl)-(gamma-Glu)-CO-(CH2) 18-CO2H; SITE 20: n
As for B2, in assay [1], the Relative cAMP EC50 was 0.101 nM and the cAMP Rel EC50 (in the presence of 1% HSA) amounted to 29.6 nM. In assay [2], the Relative cAMP EC50 is 2.71 nM and the cAMP Rel EC50 (in the presence of 1% HSA) amounted to 850 nM. Also, in assay [3], the Relative cAMP EC50 amounted to 1.55 nM and the cAMP Rel EC50 (in the presence of 1% HSA) was determined as 539 nM. Besides, in assay [4], the GLP1R Internalization EC50 amounted to 58.2 nM and the Internalization % TOP came to 68.3%.

B3: Example 44 (peptide)
chain: B1 chain with W25Y, G29X, E40S
modifications: acylated Lys; Aib, αMeL non-natural; C-terminal amide; synthetic construct; SITE 2: note = 2-Aminoisobutyric Acid; SITE 13: note = alpha-methyl-leucine; SITE 17: note = Lysine is chemically modified through conjugation of the epsilon-amino group of the Lysine side chain with (2-[2-(2-Amino-ethoxy)-ethoxy]-acetyl)-(gamma-Glu)-CO-(CH2) 18-CO2H; SITE 20: n
B3: in assay [1], the Relative cAMP EC50 is 0.116 nM and the cAMP Rel EC50 (in the presence of 1% HSA) stood at 35.9 nM. In addition, in assay [2], the Relative cAMP EC50 came out at 2.46 nM and the cAMP Rel EC50 (in the presence of 1% HSA) was 1050 nM. In assay [3], the Relative cAMP EC50 was 1.66 nM and the cAMP Rel EC50 (in the presence of 1% HSA) stood at 591 nM. Further, in assay [4], the GLP1R Internalization EC50 was determined as 51.5 nM and the Internalization % TOP stood at 65%.

B4: Example 41 (peptide)
chain: B1 chain with K12R, W25Y, S39G, E40G, G41S
modifications: Aib, αMeL; acylated Lys; C-terminal amide; synthetic construct; SITE 2: note = 2-Aminoisobutyric Acid; SITE 13: note = alpha-methyl-leucine; SITE 17: note = Lysine is chemically modified through conjugation of the epsilon-amino group of the Lysine side chain with (2-[2-(2-Amino-ethoxy)-ethoxy]-acetyl)-(gamma-Glu)-CO-(CH2) 18-CO2H; SITE 20: n
Regarding B4, in assay [1], the Relative cAMP EC50 is 0.258 nM and the cAMP Rel EC50 (in the presence of 1% HSA) is 97.9 nM. For the same molecule, in assay [2], the Relative cAMP EC50 came to 8.59 nM and the cAMP Rel EC50 (in the presence of 1% HSA) came to 2310 nM. In assay [3], the Relative cAMP EC50 worked out at 2.2 nM and the cAMP Rel EC50 (in the presence of 1% HSA) was found to be 711 nM. In assay [4], this molecule came in with a GLP1R Internalization EC50 of 83.7 nM and an Internalization % TOP of 62.3%.

B5: Example 32 (peptide)
chain: YXQGTFTSDFSKXLDKKAQXAFIEYLLAGGPSSGEPPPSEGX
modifications: Aib, αMeL, acylated K, C-terminal AEEA amide; synthetic construct; SITE 2: note = 2-Aminoisobutyric Acid; SITE 13: note = alpha-methyl-leucine; SITE 17: note = Lysine is chemically modified through conjugation of the epsilon-amino group of the Lysine side chain with (2-[2-(2-Amino-ethoxy)-ethoxy]-acetyl)-(gamma-Glu)-CO-(CH2) 18-CO2H; SITE 20: n
As to B5, the Relative cAMP EC50 in assay [1] amounted to 0.28 nM; in assay [2], 11.6 nM; in assay [3] it was 2.55 nM. The cAMP Rel EC50 (in the presence of 1% HSA) in assay [1] worked out at 66.1 nM; in assay [2] it was 1440 nM; in assay [3] it was 422 nM. This molecule showed a GLP1R Internalization EC50 in assay [4] of 86.1 nM. Moreover, the Internalization % TOP in assay [4] was 64.4%.

B6: Example 33 (peptide)
chain: B5 chain with E40G, G41E
modifications: not fully specified; Aib, αMeL; acylated Lys; C-terminal AEEA amide; synthetic construct; SITE 2: note = 2-Aminoisobutyric Acid; SITE 13: note = alpha-methyl-leucine; SITE 17: note = Lysine is chemically modified through conjugation of the epsilon-amino group of the Lysine side chain with (2-[2-(2-Amino-ethoxy)-ethoxy]-acetyl)-(gamma-Glu)-CO-(CH2) 18-CO2H; SITE 20: n
In the case of B6, the Relative cAMP EC50 in assay [1] was 0.285 nM; in assay [2], 7.04 nM; in assay [3], 1.71 nM. Further, the cAMP Rel EC50 (in the presence of 1% HSA) in assay [1] worked out at 70.7 nM; in assay [2], 1310 nM; in assay [3], 436 nM. The molecule also had a GLP1R Internalization EC50 in assay [4] of 106 nM. Also, in assay [4], the Internalization % TOP turned out to be 64.6%.

B7: Example 42 (peptide)
chain: YXQGTFTSDFSRXLDKKAQXAFIEYLLEXGPSSGAPPPGGS
modifications: Aib, αMeL; acylated Lys; C-terminal amide; synthetic construct; SITE 2: note = 2-Aminoisobutyric Acid; SITE 13: note = alpha-methyl-leucine; SITE 17: note = Lysine is chemically modified through conjugation of the epsilon-amino group of the Lysine side chain with (2-[2-(2-Amino-ethoxy)-ethoxy]-acetyl)-(gamma-Glu)-CO-(CH2) 18-CO2H; SITE 20: n
For B7, in assay [1], the Relative cAMP EC50 amounted to 0.115 nM and the cAMP Rel EC50 (in the presence of 1% HSA) is 32.3 nM. In addition, in assay [2], the Relative cAMP EC50 was determined as 5.83 nM and the cAMP Rel EC50 (in the presence of 1% HSA) was 1520 nM. Besides, in assay [3], the Relative cAMP EC50 worked out at 2.17 nM and the cAMP Rel EC50 (in the presence of 1% HSA) was determined as 700 nM. In addition, in assay [4], the GLP1R Internalization EC50 stood at 61.4 nM and the Internalization % TOP is 58.3%.
